Test results from paper PMC10341807, “Lung Surfactant Protein B Peptide Mimics Interact with the Human ACE2 Receptor” (International Journal of Molecular Sciences, 2023).
Bridges are numbered along the chain shown (N, C = ends). Where no end group is shown, it is not given here.

What was measured:
[1] = molecular target: T1, recombinant human ACE2 receptor construct (Homo sapiens, UniProt Q9BYF1); test: Surface plasmon resonance (SPR) binding of peptides to immobilised rhACE2; conditions: pH 7.4, read-out: ka
T1 construct: included residues Glutamine 18 to Serine 740 of the full-length protein; 10xHis (C); purchased R&D Systems
T1 sequence (Q9BYF1 18-740): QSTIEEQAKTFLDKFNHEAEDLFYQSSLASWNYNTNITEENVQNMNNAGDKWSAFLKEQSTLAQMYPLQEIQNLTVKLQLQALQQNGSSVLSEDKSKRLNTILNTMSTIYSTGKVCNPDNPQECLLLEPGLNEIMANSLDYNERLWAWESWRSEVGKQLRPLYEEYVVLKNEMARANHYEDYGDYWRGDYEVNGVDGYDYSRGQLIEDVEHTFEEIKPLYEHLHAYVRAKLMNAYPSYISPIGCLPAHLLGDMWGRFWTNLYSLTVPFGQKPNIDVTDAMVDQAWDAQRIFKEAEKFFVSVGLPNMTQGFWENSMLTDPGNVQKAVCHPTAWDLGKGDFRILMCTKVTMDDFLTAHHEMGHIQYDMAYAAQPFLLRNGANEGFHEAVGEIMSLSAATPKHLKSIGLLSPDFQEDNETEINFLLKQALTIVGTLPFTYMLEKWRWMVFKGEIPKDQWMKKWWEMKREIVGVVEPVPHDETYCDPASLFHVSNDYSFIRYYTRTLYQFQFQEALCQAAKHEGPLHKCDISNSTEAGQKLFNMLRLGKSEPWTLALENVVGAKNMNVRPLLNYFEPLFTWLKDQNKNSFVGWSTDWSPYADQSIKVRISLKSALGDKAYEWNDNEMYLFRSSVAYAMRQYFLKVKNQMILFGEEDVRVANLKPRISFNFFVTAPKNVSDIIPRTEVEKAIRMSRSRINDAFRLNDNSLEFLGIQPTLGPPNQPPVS

[2] = molecular target: recombinant human ACE2 receptor construct (angiotensin-converting enzyme 2) (human) (UniProt Q9BYF1); test: SPR; Biacore T100; ACE2 immobilised on the sensor chip, peptide (from 1 mg/mL in DMSO, diluted in HBS-EP buffer, 0.5 µg/mL) flowed at 30 µL/min for 5 min; 37 °C; HBS-EP: 10 mM Hepes pH 7.4, 150 mM NaCl, 3 mM EDTA, 0.005% surfactant P20
recombinant human ACE2 receptor construct (angiotensin-converting enzyme 2) (human), sequence (Q9BYF1 18-740): as above

Row | Ka [2] [M⁻¹] | Kd [2] [nM] | Kobs (at 1.05 × 10^−7 analyte) [2] [s⁻¹] | koff [2] [s⁻¹] | kon [2] [M⁻¹ s⁻¹] | Substance | kon [1] [M⁻¹ s⁻¹]
1 | – | – | – | – | – | FPIPLPYCWLCRALIKRIQAMIPKGGRMLPQLVCRLVLRCS (disulfide 8-40, 11-34) [SMB] | 6200
2 | – | – | – | – | – | FPIPLPYYWLYRALIKRIQALIPKGGRLLPQLVYRLVLRYS [B-YL] | 21900
3 | 1.01e+08 | 9.87 | 0.000712 | 6.12e-05 | 6200 | Super Mini-B (SMB), synthetic lung surfactant protein B peptide mimic | –
